Laboratory results reported in the supplement of paper PMC7877785.
± gives the uncertainty stated by the source.

Assay: self-splicing fitness, log relative to wild type (ln ratio); higher = more splicing; Tetrahymena group I intron in knt gene, E. coli kanamycin selection, DiMSum; sequences stand for … in CUCUCU…GGAGGGAAAAGUUAUCAGGCAUGCACCUGGUAGCUAGUCUUUAAACCAAUAGAUUGCAUCGGUUUAAAAGGCAAGACCGUCAAAUUGCGGGAAAGGGGUCAACAGCCGUUCAGUACCAAGUCUCAGGGGAAACUUUGAGAUGGCCUUGCAAAGGGUAUGGUAAUAAGCUGACGGACAUGGUCCUAACCACGCAGCCAAGUCCUAAGUCAACAGAUCUUCUGUUGAUAUGGAUGCAGUUCACAGACUAAAUGUCGGUCGGGGAAGAUGUAUUCUUCUCAUAAGAUAUAGUCGGACCUCUCCUUAAUGGGAGCUAGCGGAUGAAGUGAUGCAACACUGGAGCCGCUGGGAACUAAUUUGUAUGCGAAAGUAUAUUGAUUAGUUUUGGAGUACUCGUGGUCG
Summary of the method: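 Six replicate transformations of E. coli BL21(DE3) with a pET-22b(+) library were grown overnight at 37°C or 30°C. The library randomised all eight P1ex-region intron nucleotides, the intron lying in the knt kanamycin-resistance gene, and plates were LB agar with or without 25 μg/mL kanamycin plus 100 μg/mL carbenicillin, 50 μM IPTG and 0.2% rhamnose. Pooled colonies were amplicon-sequenced on an Illumina HiSeq 2500, and fitness is the DiMSum error-weighted combination of wild-type-normalised replicate fold changes, kanamycin versus none.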

| Sequence | self-splicing fitness (ln) (30 °C) | self-splicing fitness (ln) (37 °C) |
| --- | --- | --- |
| AUGAAGCAAUAUUACGAAGG | -2.57 ± 0.18 | -0.569 ± 0.19 |
| AUGAAGCAAUAUUACGAAGU | -1.21 ± 0.1 | -0.533 ± 0.12 |
| AUGAAGCAAUAUUACGACAG | 0.129 ± 0.068 | 0.414 ± 0.095 |
| AUGAAGCAAUAUUACGAGCA | -0.665 ± 0.084 | -0.299 ± 0.083 |
| AUGAAGCAAUAUUACGCAUA | -0.0747 ± 0.071 | -0.57 ± 0.082 |
| AUGAAGCAAUAUUACGCAUG | -0.801 ± 0.077 | 0.175 ± 0.085 |
| AUGAAGCAAUAUUACGCGUA | -0.537 ± 0.061 | -0.226 ± 0.07 |
| AUGAAGCAAUAUUACGCUUU | -3.68 ± 0.2 | -2.11 ± 0.21 |
| AUGAAGCAAUAUUACGGAUC | -0.696 ± 0.09 | -0.0788 ± 0.099 |
| AUGAAGCAAUAUUACGGGAA | -1.83 ± 0.11 | -0.953 ± 0.14 |
| AUGAAGCAAUAUUACGGUAA | -1.22 ± 0.065 | -0.5 ± 0.088 |
| AUGAAGCAAUAUUACGGUCU | -0.0448 ± 0.069 | 0.658 ± 0.087 |
| AUGAAGCAAUAUUACGUACC | -0.639 ± 0.067 | 0.16 ± 0.1 |
| AUGAAGCAAUAUUACGUCAU | -2.43 ± 0.093 | -1.19 ± 0.083 |
| AUGAAGCAAUAUUACGUCCC | 0.721 ± 0.15 | -0.534 ± 0.14 |
| AUGAAGCAAUAUUACGUGUG | -1.18 ± 0.059 | -0.763 ± 0.078 |
| AUGCAGCAAUAUUACGAAUG | -2.15 ± 0.17 | -2.51 ± 0.28 |
| AUGCAGCAAUAUUACGACCG | -1.66 ± 0.29 | -1.07 ± 0.3 |
| AUGCAGCAAUAUUACGACUA | -0.708 ± 0.12 | -0.187 ± 0.11 |
| AUGCAGCAAUAUUACGAGGC | -1.94 ± 0.23 | -2.34 ± 0.33 |
| AUGCAGCAAUAUUACGAUCG | -1.8 ± 0.084 | -1.16 ± 0.11 |
| AUGCAGCAAUAUUACGCAAA | -2.6 ± 0.13 | -0.0469 ± 0.14 |
| AUGCAGCAAUAUUACGCUUA | -1.26 ± 0.1 | -0.294 ± 0.094 |
| AUGCAGCAAUAUUACGGACU | -0.194 ± 0.073 | 0.429 ± 0.094 |
| AUGCAGCAAUAUUACGGAGA | -4.25 ± 0.44 | -4.21 ± 0.34 |

| Sequence | self-splicing fitness (ln) (30 °C) | self-splicing fitness (ln) (37 °C) |
| --- | --- | --- |
| AUGCAGCAAUAUUACGGAUA | -2.99 ± 0.17 | -2.22 ± 0.17 |
| AUGCAGCAAUAUUACGGAUU | -1.57 ± 0.071 | -1.14 ± 0.1 |
| AUGCAGCAAUAUUACGGCGA | -0.313 ± 0.1 | 0.239 ± 0.13 |
| AUGCAGCAAUAUUACGGCUA | 0.452 ± 0.11 | 0.366 ± 0.12 |
| AUGCAGCAAUAUUACGGGCA | -0.699 ± 0.11 | 0.227 ± 0.12 |
| AUGCAGCAAUAUUACGUACU | 0.346 ± 0.055 | 0.441 ± 0.07 |
| AUGCAGCAAUAUUACGUGGG | – | -2.97 ± 0.28 |
| AUGCAGCAAUAUUACGUUAU | -2.45 ± 0.079 | -1.24 ± 0.078 |
| AUGCAGCAAUAUUACGUUGC | -4.01 ± 0.18 | -2.25 ± 0.24 |
| AUGGAGCAAUAUUACGAGGG | -3.96 ± 0.35 | -2.55 ± 0.42 |
| AUGGAGCAAUAUUACGCCUU | -2.22 ± 0.18 | -2.41 ± 0.3 |
| AUGGAGCAAUAUUACGCGUG | -3.24 ± 0.16 | -1.15 ± 0.14 |
| AUGGAGCAAUAUUACGCUAU | -3.89 ± 0.15 | -2.4 ± 0.22 |
| AUGGAGCAAUAUUACGGCUU | -2.98 ± 0.29 | -1.83 ± 0.38 |
| AUGGAGCAAUAUUACGGGCC | -2.63 ± 0.39 | – |
| AUGGAGCAAUAUUACGGGUC | -4.63 ± 0.29 | -3.52 ± 0.28 |
| AUGGAGCAAUAUUACGGUGA | -2.9 ± 0.44 | – |
| AUGGAGCAAUAUUACGUUAC | -3.1 ± 0.25 | – |
| AUGGAGCAAUAUUACGUUGA | – | -2.38 ± 0.2 |
| AUGGAGCAAUAUUACGUUGU | -2.69 ± 0.17 | -2.48 ± 0.23 |
| AUGUAGCAAUAUUACGAAUA | -2.75 ± 0.26 | -1.22 ± 0.21 |
| AUGUAGCAAUAUUACGACUU | -0.0543 ± 0.089 | -0.312 ± 0.088 |
| AUGUAGCAAUAUUACGAGCU | -0.582 ± 0.14 | -0.987 ± 0.2 |
| AUGUAGCAAUAUUACGCACC | -1.63 ± 0.15 | -0.228 ± 0.18 |
| AUGUAGCAAUAUUACGCCCG | -0.83 ± 0.22 | -0.891 ± 0.33 |

| Sequence | self-splicing fitness (ln) (30 °C) | self-splicing fitness (ln) (37 °C) |
| --- | --- | --- |
| AUGUAGCAAUAUUACGCCGU | -1.43 ± 0.14 | -0.29 ± 0.14 |
| AUGUAGCAAUAUUACGCGUA | -1.66 ± 0.13 | -0.708 ± 0.14 |
| AUGUAGCAAUAUUACGCGUU | -3.57 ± 0.18 | -1.99 ± 0.17 |
| AUGUAGCAAUAUUACGCUUC | -2.5 ± 0.23 | -2.2 ± 0.28 |
| AUGUAGCAAUAUUACGGAAC | – | -1.16 ± 0.41 |
| AUGUAGCAAUAUUACGGACG | -3.24 ± 0.2 | -1.09 ± 0.13 |
| AUGUAGCAAUAUUACGGACU | -0.734 ± 0.11 | -0.231 ± 0.14 |
| AUGUAGCAAUAUUACGGCAG | -0.715 ± 0.073 | 0.288 ± 0.11 |
| AUGUAGCAAUAUUACGGGGA | -2.26 ± 0.21 | -2.48 ± 0.21 |
| AUGUAGCAAUAUUACGGGUC | -3.49 ± 0.4 | -2.95 ± 0.43 |
| AUGUAGCAAUAUUACGGUAU | -1.24 ± 0.093 | -0.0188 ± 0.11 |
| AUGUAGCAAUAUUACGGUGG | -3.1 ± 0.27 | -2.77 ± 0.24 |
| AUGUAGCAAUAUUACGUAGU | -2.89 ± 0.18 | -1.42 ± 0.15 |
| AUGUAGCAAUAUUACGUCAC | – | -2.81 ± 0.47 |
| AUGUAGCAAUAUUACGUCAG | -3.5 ± 0.18 | -2.25 ± 0.16 |
| AUGUAGCAAUAUUACGUGCA | -0.921 ± 0.13 | -1.01 ± 0.12 |
| AUGUAGCAAUAUUACGUUGC | -3.43 ± 0.27 | -3.08 ± 0.32 |
| AUGUAGCAAUAUUACGUUUG | -3.35 ± 0.23 | -2.72 ± 0.25 |
| AUUAAGCAAUAUUACGAACU | -0.318 ± 0.12 | 0.315 ± 0.16 |
| AUUAAGCAAUAUUACGACUU | 0.276 ± 0.082 | -0.0124 ± 0.11 |
| AUUAAGCAAUAUUACGAUCG | -2.33 ± 0.12 | -0.671 ± 0.12 |
| AUUAAGCAAUAUUACGAUGA | -0.766 ± 0.11 | -0.613 ± 0.12 |
| AUUAAGCAAUAUUACGCACA | -0.525 ± 0.12 | -0.202 ± 0.13 |
| AUUAAGCAAUAUUACGCACG | -1.37 ± 0.16 | -0.648 ± 0.17 |
| AUUAAGCAAUAUUACGCAUA | -1.98 ± 0.24 | -1.32 ± 0.22 |

| Sequence | self-splicing fitness (ln) (30 °C) | self-splicing fitness (ln) (37 °C) |
| --- | --- | --- |
| AUUAAGCAAUAUUACGCCAC | – | -1.53 ± 0.39 |
| AUUAAGCAAUAUUACGCCCU | -0.0606 ± 0.33 | -0.149 ± 0.28 |
| AUUAAGCAAUAUUACGCCGC | – | -2.04 ± 0.47 |
| AUUAAGCAAUAUUACGCCUU | -0.293 ± 0.16 | 0.373 ± 0.19 |
| AUUAAGCAAUAUUACGCGAG | -1.27 ± 0.1 | -0.38 ± 0.097 |
| AUUAAGCAAUAUUACGCGAU | -3.33 ± 0.23 | -2.63 ± 0.34 |
| AUUAAGCAAUAUUACGCUAG | -1.96 ± 0.16 | -0.736 ± 0.18 |
| AUUAAGCAAUAUUACGGGAG | -3.06 ± 0.23 | -1.89 ± 0.18 |
| AUUAAGCAAUAUUACGGUGA | -1.3 ± 0.13 | -0.588 ± 0.14 |
| AUUAAGCAAUAUUACGGUUC | -3.04 ± 0.35 | -0.609 ± 0.31 |
| AUUAAGCAAUAUUACGUAAA | -1.29 ± 0.12 | -1.15 ± 0.14 |
| AUUAAGCAAUAUUACGUAGU | -1.53 ± 0.071 | -0.166 ± 0.085 |
| AUUAAGCAAUAUUACGUCAG | -3.01 ± 0.24 | -1.85 ± 0.21 |
| AUUAAGCAAUAUUACGUGAG | -0.882 ± 0.049 | -0.33 ± 0.081 |
| AUUAAGCAAUAUUACGUGCU | -1.58 ± 0.15 | -0.835 ± 0.14 |
| AUUCAGCAAUAUUACGACAG | -2.39 ± 0.16 | -0.849 ± 0.17 |
| AUUCAGCAAUAUUACGACGA | -0.537 ± 0.1 | -0.53 ± 0.12 |
| AUUCAGCAAUAUUACGACGC | -0.246 ± 0.11 | 0.397 ± 0.14 |
| AUUCAGCAAUAUUACGACUU | -0.122 ± 0.1 | 0.27 ± 0.11 |
| AUUCAGCAAUAUUACGAGAG | -2.65 ± 0.11 | -1.38 ± 0.1 |
| AUUCAGCAAUAUUACGAGUG | -1.37 ± 0.062 | -1.02 ± 0.082 |
| AUUCAGCAAUAUUACGAUCC | -0.321 ± 0.19 | -0.287 ± 0.25 |
| AUUCAGCAAUAUUACGAUUA | -0.138 ± 0.097 | 0.146 ± 0.089 |
